Laboratory results from patent US20220323599A1, “ANTI-BCMA ANTIBODY CONJUGATE, COMPOSITIONS COMPRISING THE SAME, AND METHODS OF MAKING AND USING THE SAME” (CELGENE CORPORATION, priority 2019, published 2022).

Tests used:
[1] = molecular target: human BCMA on cells (endogenous on multiple myeloma cell lines; stably transfected 293T-hBCMA) (human) (UniProt Q02223); test: flow cytometry, ARP-1 cells
[2] = molecular target: Recombinant human BCMA ECD protein (Acro Biosystems) (human) (UniProt Q02223); test: competition ELISA on coated human BCMA ECD, competitor BAFF at 1 ng/ml, Experiment No. 1
Sequence of Recombinant human BCMA ECD protein (Acro Biosystems) (human) (Q02223 1-54 limits assumed): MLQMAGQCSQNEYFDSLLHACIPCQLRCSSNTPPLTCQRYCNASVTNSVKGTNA

[3] = molecular target: human BCMA on cells (endogenous on multiple myeloma cell lines; stably transfected 293T-hBCMA) (human) (UniProt Q02223); test: flow cytometry, 293T-hBCMA cells
[4] = molecular target: cynomolgus BCMA on stably transfected 293T cells (cynomolgus monkey); test: flow cytometry, 293T-cBCMA cells
Sequence of cynomolgus BCMA on stably transfected 293T cells (cynomolgus monkey) (Q02223 other isoform, or with tags, fused parts or gaps): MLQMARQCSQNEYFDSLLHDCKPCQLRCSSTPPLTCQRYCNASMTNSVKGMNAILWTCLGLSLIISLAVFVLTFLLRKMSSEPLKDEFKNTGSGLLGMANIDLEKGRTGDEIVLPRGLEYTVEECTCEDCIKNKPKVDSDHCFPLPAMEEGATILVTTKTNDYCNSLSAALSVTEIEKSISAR

[5] = molecular target: human BCMA on cells (endogenous on multiple myeloma cell lines; stably transfected 293T-hBCMA) (human) (UniProt Q02223); test: cell-based or functional assay

Sequence of human BCMA on cells (endogenous on multiple myeloma cell lines; stably transfected 293T-hBCMA) (human) (Q02223 whole entry, the tested form may be a part): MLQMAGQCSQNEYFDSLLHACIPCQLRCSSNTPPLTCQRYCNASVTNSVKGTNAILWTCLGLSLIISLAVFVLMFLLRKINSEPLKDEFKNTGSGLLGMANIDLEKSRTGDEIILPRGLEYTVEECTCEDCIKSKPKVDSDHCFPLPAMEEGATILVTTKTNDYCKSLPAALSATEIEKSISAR

“Conjugate 1: anti-BCMA antibody J6M0 conjugated to maleimido-caproyl monomethyl auristatin F (mc-MMAF), surrogate ADC for GSK2857916” showed a Bmax [1] of 45 MFI, a Kd [1] of 2.4 nM and an IC50 [2] of 7 nM. For the same substance, the Bmax [3] was 856 MFI, the Bmax [4] was 981 MFI and the Kd [4] was 8.6 nM. For the same substance, the cell killing EC50, ARP-1 [5] was 0.52 nM, the cell killing EC50, ARP-1, no competing reagent [5] was 0.6 nM and the cell killing EC50, MM.1S [5] was 0.68 nM. It also gave a cell killing EC50, NCI-H929 [5] of 0.29 nM, a cell killing EC50, NCI-H929, Experiment 1 [5] of 0.2 nM and a cell killing EC50, NCI-H929, Experiment 2 [5] of 0.2 nM. The cell killing EC50, NCI-H929, no competing reagent [5] was 0.4 nM, the cell killing EC50, OPM2, Experiment 1 [5] was 0.8 nM and the cell killing EC50, OPM2, Experiment 2 [5] was 0.9 nM. For the same substance, the cell killing EC50, OPM2, no competing reagent [5] was 2.3 nM, the cell killing EC50, OPM-2 [5] was 1.4 nM and the cell killing EC50, U266B1 [5] was 0.32 nM. The cell killing EC50, U266B1, Experiment 1 [5] was 0.2 nM, the cell killing EC50, U266B1, Experiment 2 [5] was 0.3 nM and the cell killing EC50, U266B1, no competing reagent [5] was 0.4 nM. For the same substance, the cell killing Span, ARP-1 [5] was 95%, the cell killing Span, ARP-1, no competing reagent [5] was 97% and the cell killing Span, MM.1S [5] was 86%. It also gave a cell killing Span, NCI-H929 [5] of 91%, a cell killing Span, NCI-H929, Experiment 1 [5] of 85% and a cell killing Span, NCI-H929, Experiment 2 [5] of 86%. It also gave a cell killing Span, NCI-H929, no competing reagent [5] of 86%, a cell killing Span, OPM2, Experiment 1 [5] of 95% and a cell killing Span, OPM2, Experiment 2 [5] of 94%. The cell killing Span, OPM2, no competing reagent [5] was 92%, the cell killing Span, OPM-2 [5] was 93% and the cell killing Span, RPMI-8226 [5] was 40%. It also gave a cell killing Span, U266B1 [5] of 90%, a cell killing Span, U266B1, Experiment 1 [5] of 85% and a cell killing Span, U266B1, Experiment 2 [5] of 84%. The cell killing Span, U266B1, no competing reagent [5] was 90%.
